Values of other authors as cited in PMC1297595.

Target: CD26 (Homo sapiens) (UniProt P27487)
Chain of UniProt P27487 (P27487 39-766): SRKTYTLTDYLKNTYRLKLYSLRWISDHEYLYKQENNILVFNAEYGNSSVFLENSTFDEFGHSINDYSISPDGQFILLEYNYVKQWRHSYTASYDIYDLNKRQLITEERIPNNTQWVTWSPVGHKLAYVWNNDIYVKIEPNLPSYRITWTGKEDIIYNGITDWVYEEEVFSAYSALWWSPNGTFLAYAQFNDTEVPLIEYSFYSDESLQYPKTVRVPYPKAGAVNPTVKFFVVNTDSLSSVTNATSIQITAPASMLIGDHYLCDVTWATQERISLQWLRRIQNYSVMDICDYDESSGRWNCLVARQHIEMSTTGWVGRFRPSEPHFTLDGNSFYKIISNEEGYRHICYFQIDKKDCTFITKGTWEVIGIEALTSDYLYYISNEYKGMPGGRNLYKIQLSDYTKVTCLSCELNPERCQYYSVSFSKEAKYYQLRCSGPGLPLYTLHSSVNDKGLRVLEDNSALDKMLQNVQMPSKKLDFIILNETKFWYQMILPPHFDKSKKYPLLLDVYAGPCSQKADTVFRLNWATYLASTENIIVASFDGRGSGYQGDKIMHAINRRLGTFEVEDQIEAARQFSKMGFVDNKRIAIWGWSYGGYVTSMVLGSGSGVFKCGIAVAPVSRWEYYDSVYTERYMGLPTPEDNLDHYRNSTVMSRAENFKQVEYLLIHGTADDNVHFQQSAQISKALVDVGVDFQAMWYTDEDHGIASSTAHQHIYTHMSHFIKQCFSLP

Kd: 0.065 µM
Substance: ADA (from UniProt P00813)
